Reference: patent US20160279215A1, “NOVEL PEPTIDES AND COMBINATION OF PEPTIDES FOR USE IN IMMUNOTHERAPY AGAINST VARIOUS TUMORS” (immatics biotechnologies GmbH, priority 2015, published 2016)

target: T1, HLA-A*02:01 (Homo sapiens, UniProt P04439, D140Y/D185E/D98H/E176V/E277Q/G131W/G231S/I119V/I121R/I166T/I218V/L300P/L318F/N151K/N90K/P208A/P217A/Q86G/Q94H/R138H/R169H/T345S); experiment: MHC binding assay: UV-ligand exchange with β2m ELISA (peptide exchange yield); details: binding to HLA-A*02:01 evaluated by peptide exchange yield (UV-ligand exchange, β2m ELISA)
T1 construct: made in house
Excerpt: Candidate peptides for T cell based therapies according to the present invention were further tested for their MHC binding capacity (affinity). The individual peptide-MHC complexes were produced by UV-ligand exchange, where a UV-sensitive peptide is cleaved upon UV-irradiation, and exchanged with the peptide of interest as analyzed. Only peptide candidates that can effectively bind and stabilize the peptide-receptive MHC molecules prevent dissociation of the MHC complexes. To determine the yield of the exchange reaction, an ELISA was performed based on the detection of the light chain (β2m) of stabilized MHC complexes. The assay was performed as generally described in Rodenko et al. (Rodenko et al., 2006).
96 well MAXISorp plates (NUNC) were coated over night with 2 ug/ml streptavidin in PBS at room temperature, washed 4× and blocked for 1 h at 37° C. in 2% BSA containing blocking buffer. Refolded HLA-A*02:01/MLA-001 monomers served as standards, covering the range of 15-500 ng/ml. Peptide-MHC monomers of the UV-exchange reaction were diluted 100 fold in blocking buffer. Samples were incubated for 1 h at 37° C., washed four times, incubated with 2 ug/ml HRP conjugated anti-β2m for 1 h at 37° C., washed again and detected with TMB solution that is stopped with […]. Absorption was measured at 450 nm. Candidate peptides that show a high exchange yield (preferably higher than 50%, most preferred higher than 75%) are generally preferred for a generation and production of antibodies or fragments thereof, and/or T cell receptors or fragments thereof, as they show sufficient avidity to the MHC molecules and prevent dissociation of the MHC complexes.

Substance	Peptide exchange
85 (KLLDKPEQFL; listed as Homo sapiens) [compound 85]	++ (≧20% = ++)
70 (GLTEKTVLV; listed as Homo sapiens) [compound 70]	++ (≧20% = ++)
36 (TVLQELINV; listed as Homo sapiens) [compound 36]	+++ (≧50 = +++)
262 (LLLEAVWHL; listed as Homo sapiens) [compound 262]	+++ (≧50 = +++)
286 (FLTEMVHFI; listed as Homo sapiens) [compound 286]	+++ (≧50 = +++)
271 (VLIEYNFSI; listed as Homo sapiens) [compound 271]	+++ (≧50 = +++)
167 (LVVDEGSLVSV; listed as Homo sapiens) [compound 167]	+++ (≧50 = +++)
269 (GLLDCPIFL; listed as Homo sapiens) [compound 269]	++++ (≧75% = ++++)
42 (KQMSISTGL; listed as Homo sapiens) [compound 42]	++ (≧20% = ++)
170 (FIAAVVEKV; listed as Homo sapiens) [compound 170]	++ (≧20% = ++)
244 (NVAEIVIHI; listed as Homo sapiens) [compound 244]	+++ (≧50 = +++)
26 (VLDGKVAVV; listed as Homo sapiens) [compound 26]	+++ (≧50 = +++)
5 (GLVDIMVHL; listed as Homo sapiens) [compound 5]	+++ (≧50 = +++)
39 (YLEDGFAYV; listed as Homo sapiens) [compound 39]	+++ (≧50 = +++)
123 (QTAPEEAFIKL; listed as Homo sapiens) [compound 123]	+ (≧10% = +)
245 (ALLEEEEGV; listed as Homo sapiens) [compound 245]	++ (≧20% = ++)
266 (FLLDKPQDL; listed as Homo sapiens) [compound 266]	++ (≧20% = ++)

Substance	Peptide exchange
217 (LLWPSSVPA; listed as Homo sapiens) [compound 217]	+++ (≧50 = +++)
208 (HLNNDRNPL; listed as Homo sapiens) [compound 208]	++ (≧20% = ++)
185 (TLYQGLPAEV; listed as Homo sapiens) [compound 185]	++ (≧20% = ++)
192 (TLLPSSGLVTL; listed as Homo sapiens) [compound 192]	++ (≧20% = ++)
129 (KMASKVTQV; listed as Homo sapiens) [compound 129]	++ (≧20% = ++)
163 (GLEERLYTA; listed as Homo sapiens) [compound 163]	++ (≧20% = ++)
93 (RLYGYFHDA; listed as Homo sapiens) [compound 93]	++ (≧20% = ++)
272 (FVMEGEPPKL; listed as Homo sapiens) [compound 272]	++ (≧20% = ++)
25 (LLWGHPRVALA; listed as Homo sapiens) [compound 25]	+++ (≧50 = +++)
247 (NLLIDDKGTIKL; listed as Homo sapiens) [compound 247]	++ (≧20% = ++)
137 (KLIYKDLVSV; listed as Homo sapiens) [compound 137]	++ (≧20% = ++)
83 (GLLENSPHL; listed as Homo sapiens) [compound 83]	++ (≧20% = ++)
87 (KLLSLLEEA; listed as Homo sapiens) [compound 87]	+++ (≧50 = +++)
63 (KLLPMVIQL; listed as Homo sapiens) [compound 63]	+++ (≧50 = +++)
154 (AIIKEIQTV; listed as Homo sapiens) [compound 154]	++ (≧20% = ++)
34 (TLNTLDINL; listed as Homo sapiens) [compound 34]	+++ (≧50 = +++)
